Measured values: patent US10835594B2, “Type III secretion injectisome proteins for treatment and prevention of chlamydial infections” (priority 2014, dated 2020)

Test system: murine C. trachomatis (Cmu)
Assay: Immunization of mice and live intravaginal challenge with Cmu
Parameters: species or system BALB/c mice
Settings: mouse, in vivo

B1: Cpn0803 protein: Chlamydia pneumoniae type III secretion-associated protein, SEQ ID NO: 1 (protein, listed as Chlamydia pneumoniae)
chain: MAAKTKTLELEDNVFLLLEGNLKRIFATPIGYTTFREFQNVVFNCANGQQEIANFFFEMLINGKLTQELAPQQKQAAHSLIAEFMMPIRVAKDIHERGEFINFITSDMLTQQERCIFLNRLARVDGQEFLLMTDVQNTCHLIRHLLARLLEAQKNPVGEKNLQEIQEEITSLKNHFDELTKALQ
B1 was tested, and the “immune response protective against live challenge” value was “protective against a live challenge with Chlamydia” and the “immune response protective against live challenge” value (listed as Cpn0803) was “Protective Against a Live Challenge with Chlamydia”.
